Reference: patent publication US20070148163A1 (Kyowa Kirin, published 2007)
cellulose membrane = not defined here

T1: 20th of the 82 13-mer peptides covering the extracellular region of CD40 (cysteine pairing not given here; reading uncertain)
T1 construct: also called 20th peptide
T1 peptide: Ac-CLPCGESEFLDTW-{cellulose membrane}

T2: 21st of the 82 13-mer peptides covering the extracellular region of CD40 (reading uncertain)
T2 construct: also called 21st peptide
T2 peptide: Ac-PCGESEFLDTWNR-{cellulose membrane}

T3: 22nd of the 82 13-mer peptides covering the extracellular region of CD40 (reading uncertain)
T3 construct: also called 22nd peptide
T3 peptide: Ac-GESEFLDTWNRET-{cellulose membrane}

T4: 23rd of the 82 13-mer peptides covering the extracellular region of CD40 (reading uncertain)
T4 construct: also called 23rd peptide
T4 peptide: Ac-SEFLDTWNRETHC-{cellulose membrane}

T5: 24th of the 82 13-mer peptides covering the extracellular region of CD40 (reading uncertain)
T5 construct: also called 24th peptide
T5 peptide: Ac-FLDTWNRETHCHQ-{cellulose membrane}

T6: 41st of the 82 13-mer peptides covering the extracellular region of CD40 (cysteine pairing not given here; reading uncertain)
T6 construct: also called 41st peptide
T6 peptide: Ac-TICTCEEGWHCTS-{cellulose membrane}

T7: 42nd of the 82 13-mer peptides covering the extracellular region of CD40 (cysteine pairing not given here; reading uncertain)
T7 construct: also called 42nd peptide
T7 peptide: Ac-CTCEEGWHCTSEA-{cellulose membrane}


What was measured:
[1] = molecular target: T8, human CD40 expressed on cells (Ramos, T24, Hs 766T, Capan-2) (human, UniProt P25942 21-277); assay: flow cytometry on Ramos cells
T8 construct: whole, on cells; also called Ramos cells expressing human CD40

[2] = molecular target: T9, CD40mut2 (mutant CD40-FC fusion protein) (UniProt P25942 21-193, limits assumed); assay: ELISA on mutant CD40-FC fusion protein
T9 construct: Human CD40 implied

[3] = molecular target: T1, 20th of the 82 13-mer peptides covering …; assay: SPOT peptide array (13-mers on cellulose membrane), Western-type detection, spot intensity by LumiImager
Protocol: (§1) The reaction thereafter was carried out based on a conventional Western analysis (see Reineke, U. et al. (2001), “Epitope mapping with synthetic peptides prepared by SPOT synthesis.” Antibody Engineering (Springer Lab Manual) Eds.: Kontermann/Dubel, 433-459, for example). In the analysis, coloring intensity of each spot was quantified using Lumilmager™ (Boehringer-Mannheim Corp.) (FIG. 1A-1, 1A-2, 1B-1 and B-2).

[4] = molecular target: T2, 21st of the 82 13-mer peptides covering …; assay: as above
Protocol: as §1

[5] = molecular target: T3, 22nd of the 82 13-mer peptides covering …; assay: as above
Protocol: as §1

[6] = molecular target: T4, 23rd of the 82 13-mer peptides covering …; assay: as above
Protocol: as §1

[7] = molecular target: T5, 24th of the 82 13-mer peptides covering …; assay: as above
Protocol: as §1

[8] = molecular target: T6, 41st of the 82 13-mer peptides covering …; assay: as above
Protocol: as §1

[9] = molecular target: T8, human CD40 expressed on cells (Ramos, …); assay: cell-based or functional assay
[10] = molecular target: T7, 42nd of the 82 13-mer peptides covering …; assay: SPOT peptide array (13-mers on cellulose membrane), Western-type detection, spot intensity by LumiImager
Protocol: as §1

T8 sequence (P25942 21-277): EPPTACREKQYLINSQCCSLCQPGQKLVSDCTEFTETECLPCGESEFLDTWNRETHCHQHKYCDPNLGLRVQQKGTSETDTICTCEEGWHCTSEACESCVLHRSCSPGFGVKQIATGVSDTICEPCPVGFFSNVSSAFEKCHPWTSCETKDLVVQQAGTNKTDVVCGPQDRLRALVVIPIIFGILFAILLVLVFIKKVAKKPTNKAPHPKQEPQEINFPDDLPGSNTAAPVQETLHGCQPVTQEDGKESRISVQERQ
T9 sequence (P25942 other isoform, or with tags, fused parts or gaps mutant limits assumed): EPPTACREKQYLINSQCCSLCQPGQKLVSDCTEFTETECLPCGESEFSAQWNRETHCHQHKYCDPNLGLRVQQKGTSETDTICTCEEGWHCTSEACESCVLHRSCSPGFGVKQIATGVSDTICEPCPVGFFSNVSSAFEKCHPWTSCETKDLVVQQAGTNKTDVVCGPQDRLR

Row | binding result [1] | CD95 expression enhancing activity in Ramos cells, reduction against IgG2 [9] [%] | Binder | further results
1 | binds |  | 4D11 antibody (original subclass IgG1) (antibody, V domains shown, also called 4D11G1) VH: QLQLQESGPGLLKPSETLSLTCTVSGGSISSPGYYGGWIRQPPGKGLEWIGSIYKSGSTYHNPSLKSRVTISVDTSKNQFSLKLSSVTAADTAVYYCTRPVVRYFGWFDPWGQGTLVTVSS VL: AIQLTQSPSSLSASVGDRVTITCRASQGISSALAWYQQKPGKAPKLLIYDASNLESGVPSRFSGSGSGTDFTLTISSLQPEDFATYYCQQFNSYPTFGQGTKVEIK | binding result [2]: binds; binding result [3]: binds; binding result [4]: binds; binding result [5]: binds; binding result [6]: binds; binding result [7]: binds; binding result [8]: binds
2 | binds |  | 4D11 antibody IgG4 (antibody, V domains shown, Human IgG4 constant region (vector N5KG4), no point mutation; also called 4D11 IgG4) VH: QLQLQESGPGLLKPSETLSLTCTVSGGSISSPGYYGGWIRQPPGKGLEWIGSIYKSGSTYHNPSLKSRVTISVDTSKNQFSLKLSSVTAADTAVYYCTRPVVRYFGWFDPWGQGTLVTVSS VL: AIQLTQSPSSLSASVGDRVTITCRASQGISSALAWYQQKPGKAPKLLIYDASNLESGVPSRFSGSGSGTDFTLTISSLQPEDFATYYCQQFNSYPTFGQGTKVEIK | 
3 | binds |  | 4D11G4PE (4D11 antibody, IgG4 with S228P and L235E) (antibody, V domains shown, also called IgG4PE; 4D11 antibody G4PE) VH: QLQLQESGPGLLKPSETLSLTCTVSGGSISSPGYYGGWIRQPPGKGLEWIGSIYKSGSTYHNPSLKSRVTISVDTSKNQFSLKLSSVTAADTAVYYCTRPVVRYFGWFDPWGQGTLVTVSS VL: AIQLTQSPSSLSASVGDRVTITCRASQGISSALAWYQQKPGKAPKLLIYDASNLESGVPSRFSGSGSGTDFTLTISSLQPEDFATYYCQQFNSYPTFGQGTKVEIKR | 
4 | binds |  | 4D11G4P (4D11 antibody, IgG4 with S228P) (antibody, V domains shown, Human IgG4 constant region with point mutation S228P (EU index; vector N5KG4P); also called IgG4P) VH: QLQLQESGPGLLKPSETLSLTCTVSGGSISSPGYYGGWIRQPPGKGLEWIGSIYKSGSTYHNPSLKSRVTISVDTSKNQFSLKLSSVTAADTAVYYCTRPVVRYFGWFDPWGQGTLVTVSS VL: AIQLTQSPSSLSASVGDRVTITCRASQGISSALAWYQQKPGKAPKLLIYDASNLESGVPSRFSGSGSGTDFTLTISSLQPEDFATYYCQQFNSYPTFGQGTKVEIK | 
5 |  | ≥ 10 | KM341-1-19 antibody, constant region converted into IgG1 (antibody, V domains shown) VH: QVQLQQSGPGLVKPSQTLSLTCAISGDSVSSNSATWNWIRQSPSRDLEWLGRTYYRSKWYRDYVGSVKSRIIINPDTSNNQFSLQLNSVTPEDTAIYYCTRAQWLGGDYPYYYSMDVWGQGTTVTVSS VL: EIVLTQSPATLSLSPGERATLSCRASQSVSSYLAWYQQKPGQAPRLLIYDASNRATGIPARFSGSGSGTDFTLTISSLEPEDFAVYYCQQRSNTFGPGTKVDIK | 
6 |  | ≥ 10 | KM341-1-19 antibody, constant region converted into IgG4 (antibody, V domains shown) VH: QVQLQQSGPGLVKPSQTLSLTCAISGDSVSSNSATWNWIRQSPSRDLEWLGRTYYRSKWYRDYVGSVKSRIIINPDTSNNQFSLQLNSVTPEDTAIYYCTRAQWLGGDYPYYYSMDVWGQGTTVTVSS VL: EIVLTQSPATLSLSPGERATLSCRASQSVSSYLAWYQQKPGQAPRLLIYDASNRATGIPARFSGSGSGTDFTLTISSLEPEDFAVYYCQQRSNTFGPGTKVDIK | 
7 |  |  | KM341-1-19 antibody (original IgG2) (antibody, Human IgG2; also called original KM341-1-19 antibody) heavy: QVQLQQSGPGLVKPSQTLSLTCAISGDSVSSNSATWNWIRQSPSRDLEWLGRTYYRSKWYRDYVGSVKSRIIINPDTSNNQFSLQLNSVTPEDTAIYYCTRAQWLGGDYPYYYSMDVWGQGTTVTVSSASTKGPSVFPLAPCSRSTSESTAALGCLVKDYFPEPVTVSWNSGALTSGVHTFPAVLQSSGLYSLSSVVTVPSSNFGTQTYTCNVDHKPSNTKVDKTVERKCCVECPPCPAPPVAGPSVFLFPPKPKDTLMISRTPEVTCVVVDVSHEDPEVQFNWYVDGVEVHNAKTKPREEQFNSTFRVVSVLTVVHQDWLNGKEYKCKVSNKGLPAPIEKTISKTKGQPREPQVYTLPPSREEMTKNQVSLTCLVKGFYPSDIAVEWESNGQPENNYKTTPPMLDSDGSFFLYSKLTVDKSRWQQGNVFSCSVMHEALHNHYTQKSLSLSPGK VL: EIVLTQSPATLSLSPGERATLSCRASQSVSSYLAWYQQKPGQAPRLLIYDASNRATGIPARFSGSGSGTDFTLTISSLEPEDFAVYYCQQRSNTFGPGTKVDIK | binding result [8]: binds; binding result [10]: binds
8 |  | ≥ 10 | KM341-1-19 antibody, constant region converted into IgG3 (antibody, V domains shown) VH: QVQLQQSGPGLVKPSQTLSLTCAISGDSVSSNSATWNWIRQSPSRDLEWLGRTYYRSKWYRDYVGSVKSRIIINPDTSNNQFSLQLNSVTPEDTAIYYCTRAQWLGGDYPYYYSMDVWGQGTTVTVSS VL: EIVLTQSPATLSLSPGERATLSCRASQSVSSYLAWYQQKPGQAPRLLIYDASNRATGIPARFSGSGSGTDFTLTISSLEPEDFAVYYCQQRSNTFGPGTKVDIK | 
9 |  | ≥ 10 | 2105 antibody, constant region converted into IgG1 (antibody, V domains shown) VH: EVQLVESGGGLVQPGRSLRLSCAASGFTFDDYAMHWVRQAPGKGLEWVSGISWNSGSLVHADSVKGRFTISRDNAKNSLYLQMNSLRAEDTALYYCARDRLFRGVRYYGMDVWGQGTTVTVSS VL: EIVLTQSPATLSLSPGERATLSCRASQSVSSYLAWYQQKPGQAPRLLIYDASNRATGIPARFSGSGSGTDFTLTISSLEPEDFAVYYCQQRSHWLTFGGGTKVEIK | 
10 |  | ≥ 10 | 2105 antibody, constant region converted into IgG4 (antibody, V domains shown) VH: EVQLVESGGGLVQPGRSLRLSCAASGFTFDDYAMHWVRQAPGKGLEWVSGISWNSGSLVHADSVKGRFTISRDNAKNSLYLQMNSLRAEDTALYYCARDRLFRGVRYYGMDVWGQGTTVTVSS VL: EIVLTQSPATLSLSPGERATLSCRASQSVSSYLAWYQQKPGQAPRLLIYDASNRATGIPARFSGSGSGTDFTLTISSLEPEDFAVYYCQQRSHWLTFGGGTKVEIK | 
11 |  | ≥ 10 | 2105 antibody, constant region converted into IgG3 (antibody, V domains shown) VH: EVQLVESGGGLVQPGRSLRLSCAASGFTFDDYAMHWVRQAPGKGLEWVSGISWNSGSLVHADSVKGRFTISRDNAKNSLYLQMNSLRAEDTALYYCARDRLFRGVRYYGMDVWGQGTTVTVSS VL: EIVLTQSPATLSLSPGERATLSCRASQSVSSYLAWYQQKPGQAPRLLIYDASNRATGIPARFSGSGSGTDFTLTISSLEPEDFAVYYCQQRSHWLTFGGGTKVEIK | 
